Experiments:
[1] = target: T1, N-cadherin (human (endogenous in primary fibroblasts)), P19022; assay: AFM single-cell force spectroscopy; conditions: remark: other sources report otherwise
T1 chain: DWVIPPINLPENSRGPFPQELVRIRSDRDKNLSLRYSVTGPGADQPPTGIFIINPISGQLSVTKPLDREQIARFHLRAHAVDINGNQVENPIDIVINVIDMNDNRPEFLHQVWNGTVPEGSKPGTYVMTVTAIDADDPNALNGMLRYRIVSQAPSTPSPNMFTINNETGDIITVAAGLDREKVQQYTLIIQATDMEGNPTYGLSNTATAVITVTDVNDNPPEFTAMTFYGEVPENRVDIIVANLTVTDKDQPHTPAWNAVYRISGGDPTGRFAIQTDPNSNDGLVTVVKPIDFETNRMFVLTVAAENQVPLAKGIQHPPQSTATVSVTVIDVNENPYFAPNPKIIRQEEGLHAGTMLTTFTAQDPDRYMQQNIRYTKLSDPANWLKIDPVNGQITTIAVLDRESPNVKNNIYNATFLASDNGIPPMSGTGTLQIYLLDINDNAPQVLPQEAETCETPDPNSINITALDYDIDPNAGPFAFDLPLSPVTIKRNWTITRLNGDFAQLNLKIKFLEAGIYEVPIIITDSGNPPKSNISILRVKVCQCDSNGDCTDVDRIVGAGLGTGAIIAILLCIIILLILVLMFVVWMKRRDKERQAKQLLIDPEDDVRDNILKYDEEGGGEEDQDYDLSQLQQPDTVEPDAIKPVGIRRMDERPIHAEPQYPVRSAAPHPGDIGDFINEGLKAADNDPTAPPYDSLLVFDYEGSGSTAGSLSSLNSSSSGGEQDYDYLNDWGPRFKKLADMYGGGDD

[2] = target: T1, N-cadherin (human (endogenous in …)); assay: AFM single-cell force spectroscopy; conditions: remark: other sources report otherwise

B1: N-cadherin, P19022 160-906 (natural protein)
chain: T1 chain
A median rupture force [1] of 51.9 pN and a median rupture force [2] of 45.2 pN were found for B1 in this work.

From doi:10.1101/2020.02.11.943597
